Results published in patent US20060046271A1 (VANDERBILT UNIVERSITY, published 2006).

Target: α2bβ3 receptor (mouse (endogenous, tumor-bearing …, UniProt Q9QUM0 32-1033; O54890 26-787)
Experiment: cell-based or functional assay

Sequence of α2bβ3 receptor (mouse (Q9QUM0 32-1033, chain 1 of 2): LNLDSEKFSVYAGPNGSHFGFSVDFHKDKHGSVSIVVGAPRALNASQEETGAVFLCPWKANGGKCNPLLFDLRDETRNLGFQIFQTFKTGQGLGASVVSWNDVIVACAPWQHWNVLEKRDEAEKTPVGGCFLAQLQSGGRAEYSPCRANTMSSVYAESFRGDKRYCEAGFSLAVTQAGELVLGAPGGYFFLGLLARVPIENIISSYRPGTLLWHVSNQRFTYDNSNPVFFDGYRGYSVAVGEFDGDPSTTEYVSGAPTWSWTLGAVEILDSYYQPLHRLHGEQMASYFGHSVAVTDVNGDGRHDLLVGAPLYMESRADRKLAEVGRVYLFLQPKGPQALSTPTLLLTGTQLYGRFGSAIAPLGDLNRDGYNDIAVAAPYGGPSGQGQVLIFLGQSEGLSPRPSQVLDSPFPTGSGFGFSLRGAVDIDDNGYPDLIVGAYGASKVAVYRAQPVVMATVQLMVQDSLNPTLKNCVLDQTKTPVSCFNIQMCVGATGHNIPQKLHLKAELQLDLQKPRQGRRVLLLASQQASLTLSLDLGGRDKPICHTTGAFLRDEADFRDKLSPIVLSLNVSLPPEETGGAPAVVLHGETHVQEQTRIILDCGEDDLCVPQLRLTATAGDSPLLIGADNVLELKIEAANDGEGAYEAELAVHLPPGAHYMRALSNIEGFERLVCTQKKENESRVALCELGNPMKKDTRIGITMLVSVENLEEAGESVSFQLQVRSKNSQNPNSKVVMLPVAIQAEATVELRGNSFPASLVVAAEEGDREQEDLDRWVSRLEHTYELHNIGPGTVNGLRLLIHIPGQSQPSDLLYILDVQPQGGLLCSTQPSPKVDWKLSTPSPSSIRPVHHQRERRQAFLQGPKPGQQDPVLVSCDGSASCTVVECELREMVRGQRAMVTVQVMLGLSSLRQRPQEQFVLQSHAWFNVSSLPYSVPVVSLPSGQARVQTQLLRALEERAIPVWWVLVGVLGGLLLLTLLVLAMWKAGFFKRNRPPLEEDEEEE
Sequence of α2bβ3 receptor (mouse (O54890 26-787, chain 2 of 2): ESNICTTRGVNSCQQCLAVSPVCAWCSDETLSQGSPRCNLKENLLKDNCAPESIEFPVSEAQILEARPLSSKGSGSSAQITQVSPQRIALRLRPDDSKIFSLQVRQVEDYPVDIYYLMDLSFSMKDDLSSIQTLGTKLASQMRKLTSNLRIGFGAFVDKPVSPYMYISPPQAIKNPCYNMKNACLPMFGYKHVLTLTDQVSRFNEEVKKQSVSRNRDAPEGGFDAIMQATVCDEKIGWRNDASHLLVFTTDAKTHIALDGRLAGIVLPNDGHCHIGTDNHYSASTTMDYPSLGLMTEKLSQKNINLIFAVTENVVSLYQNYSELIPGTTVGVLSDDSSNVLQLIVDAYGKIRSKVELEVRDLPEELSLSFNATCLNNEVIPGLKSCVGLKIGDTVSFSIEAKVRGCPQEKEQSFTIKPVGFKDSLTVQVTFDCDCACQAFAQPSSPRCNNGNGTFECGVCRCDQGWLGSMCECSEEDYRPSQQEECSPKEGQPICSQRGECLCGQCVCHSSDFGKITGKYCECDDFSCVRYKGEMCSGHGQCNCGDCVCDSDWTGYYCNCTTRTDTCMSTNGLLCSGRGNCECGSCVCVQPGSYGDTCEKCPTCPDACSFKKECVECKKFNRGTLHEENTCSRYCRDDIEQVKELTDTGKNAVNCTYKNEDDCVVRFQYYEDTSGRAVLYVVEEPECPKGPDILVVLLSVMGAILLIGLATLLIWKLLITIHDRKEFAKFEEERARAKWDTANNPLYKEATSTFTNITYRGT

B1: Phage encoding SLRGDGSSV (SEQ ID NO: 2) on the capsid protein (peptide)
peptide: MASMTGGQQMGTNQGKGVVAAGDKLALFLKVFGGEVLTAFARTSVTTSRHMVRSISSGKSAQFPVLGRTQAAYLAPGENLDDKRKDIKHTEKVITIDGLLTADVLIYDIEDAMNHYDVRSEYTSQLGESLAMAADGAVLAEIAGLCNVESKYNENIEGLGTATVIETTQNKAALTDQVALGKEIIAALTKARAALTKNYVPAADRVFYCDPDSYSAILAALMPNAANYAALIDPEKGSIRNVMGFEVVEVPHLTAGGAGTAREGTTGQKHVFPANKGEGNVKVAKDNVIGLFMHRSAVGTVKLRDLALERARRANFQADQIIAKYAMGHGGLRPEAAGAVVFQSGVMLNSLRGDGSSV
- phage binding in tumor (phage recovered, quantified by plaque formation): 4 fold
